T1: octa-histidine tagged Pf41 D1D2 (residues 21-368) (Plasmodium falciparum, UniProt Q8I1Y0 21-368)
T1 construct: Pf41, Plasmodium falciparum 6-cysteine protein, residues K21-S368; TEV-cleavable tag left on; loaded on NTA sensors; also called tagged wildtype Pf41; source: Spodoptera frugiperda 21 cells, secreted into growth media, purified as tagged protein (Ni-IMAC, SEC); not shown: His8, N-terminal, kept
T1 sequence: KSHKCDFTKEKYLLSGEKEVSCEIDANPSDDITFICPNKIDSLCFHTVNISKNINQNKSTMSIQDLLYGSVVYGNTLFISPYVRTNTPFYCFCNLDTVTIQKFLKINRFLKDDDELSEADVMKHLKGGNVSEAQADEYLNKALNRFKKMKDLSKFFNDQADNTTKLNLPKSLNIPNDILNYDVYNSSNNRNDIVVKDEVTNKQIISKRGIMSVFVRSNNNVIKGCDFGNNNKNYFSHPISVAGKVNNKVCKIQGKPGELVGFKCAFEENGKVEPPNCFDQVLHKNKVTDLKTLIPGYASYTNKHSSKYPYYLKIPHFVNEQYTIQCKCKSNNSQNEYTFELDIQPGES

T2: Pf12 labelled with DyLight 488 (Plasmodium falciparum (sequence as 3D7), DyLight 488 (N-hydroxysuccinimide ester), about 2.4 dye per protein)
T2 construct: Pf12, Plasmodium falciparum 6-cysteine protein; The FRET methods say only 'Pf12'; also called Pf12-DL488
T2 chain: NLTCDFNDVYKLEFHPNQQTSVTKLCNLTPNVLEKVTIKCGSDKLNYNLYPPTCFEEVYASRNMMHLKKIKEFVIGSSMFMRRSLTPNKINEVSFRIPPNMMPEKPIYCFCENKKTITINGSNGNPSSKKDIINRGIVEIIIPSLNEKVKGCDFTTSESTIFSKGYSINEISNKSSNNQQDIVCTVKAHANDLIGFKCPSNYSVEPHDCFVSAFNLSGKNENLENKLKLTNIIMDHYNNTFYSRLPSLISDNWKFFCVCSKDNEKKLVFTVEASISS


How the values were obtained:
Conditions in all cases: both partners purified
[1] = molecular target: T1, octa-histidine tagged Pf41 D1D2 …; assay: BLI; Octet RED96e; octa-histidine tagged Pf41 loaded on NTA sensors; untagged Pf12 wildtype, mutant or single domain 31-1000 nM; PBS pH 7.4, 0.1% BSA, 0.05% TWEEN-20, 25°C; read-out relative maximum response against wildtype
[2] = molecular target: T3, Pf12 D1D2 (residues 28-304), untagged (Plasmodium falciparum, UniProt C6KSX0); assay: BLI; Octet RED96e; nanobodies loaded on NTA sensors; untagged Pf12 or Pf41 (6-200 nM) or their domains in solution; PBS pH 7.4, 0.1% BSA, 0.05% TWEEN-20, 25°C; global 1:1 fit
T3 construct: Pf12, Plasmodium falciparum 6-cysteine protein, residues N28-S304 (domains D1 and D2); lacks the signal peptide and the GPI-anchor site; After TEV cleavage three residues, GAS, remain at the N-terminus as cloning artefacts; N-glycosylation sites kept; treated with PNGase F before crystallisation; also called Pf12 wildtype; source: Spodoptera frugiperda 21 cells, secreted into growth media, …

[3] = molecular target: T4, Pf41 D1D2 (residues 21-368), untagged (Plasmodium falciparum, UniProt Q8I1Y0); assay: as above
T4 construct: Pf41, Plasmodium falciparum 6-cysteine protein, residues K21-S368 (D1 with the inserted-domain-like region ID, and D2); lacks the signal peptide and ten C-terminal residues; After TEV cleavage three residues, GAS, remain at the N-terminus as cloning artefacts; N-glycosylation sites kept; treated with PNGase F before crystallisation; also called Pf41 wildtype; source: Spodoptera frugiperda 21 …

[4] = molecular target: T5, Pf12 D2 (residues E174-S304) (Plasmodium falciparum, UniProt C6KSX0); assay: as above
T5 construct: Pf12, Plasmodium falciparum, C-terminal 6-cys domain D2, residues E174-S304; also called Pf12 D2 domain; source: Spodoptera frugiperda 21 cells, purified by the same protocol as Pf12 D1D2; not shown: His8, N-terminal, cleaved

[5] = molecular target: T2, Pf12 labelled with DyLight 488; assay: FRET or BRET; Pf12-DL488 and Pf41-DL594 mixed 1:1 with five-fold excess of nanobody; FRET signal relative to the no-nanobody control

Binder | binding result [1] | binding result [2] | binding result [3] | binding result [4] | also measured
Pf12 D1D2 F241L (domain or fragment, Pf12, Plasmodium falciparum, residues N28-S304 (D1D2); source: Spodoptera frugiperda 21 cells, purified (Ni-IMAC, TEV cleavage, SEC); not shown: His8, N-terminal, cleaved) NLTCDFNDVYKLEFHPNQQTSVTKLCNLTPNVLEKVTIKCGSDKLNYNLYPPTCFEEVYASRNMMHLKKIKEFVIGSSMFMRRSLTPNKINEVSFRIPPNMMPEKPIYCFCENKKTITINGSNGNPSSKKDIINRGIVEIIIPSLNEKVKGCDFTTSESTIFSKGYSINEISNKSSNNQQDIVCTVKAHANDLIGFKCPSNYSVEPHDCFVSALNLSGKNENLENKLKLTNIIMDHYNNTFYSRLPSLISDNWKFFCVCSKDNEKKLVFTVEASISS | binds |  |  |  | 
Pf12 D1D2 H234A (domain or fragment, Pf12, Plasmodium falciparum, residues N28-S304 (D1D2); source: Spodoptera frugiperda 21 cells, purified (Ni-IMAC, TEV cleavage, SEC); not shown: His8, N-terminal, cleaved) NLTCDFNDVYKLEFHPNQQTSVTKLCNLTPNVLEKVTIKCGSDKLNYNLYPPTCFEEVYASRNMMHLKKIKEFVIGSSMFMRRSLTPNKINEVSFRIPPNMMPEKPIYCFCENKKTITINGSNGNPSSKKDIINRGIVEIIIPSLNEKVKGCDFTTSESTIFSKGYSINEISNKSSNNQQDIVCTVKAHANDLIGFKCPSNYSVEPADCFVSAFNLSGKNENLENKLKLTNIIMDHYNNTFYSRLPSLISDNWKFFCVCSKDNEKKLVFTVEASISS | binds |  |  |  | 
Pf12 D1D2 M106A (domain or fragment, Pf12, Plasmodium falciparum, residues N28-S304 (D1D2); source: Spodoptera frugiperda 21 cells, purified (Ni-IMAC, TEV cleavage, SEC); not shown: His8, N-terminal, cleaved) NLTCDFNDVYKLEFHPNQQTSVTKLCNLTPNVLEKVTIKCGSDKLNYNLYPPTCFEEVYASRNMMHLKKIKEFVIGSSAFMRRSLTPNKINEVSFRIPPNMMPEKPIYCFCENKKTITINGSNGNPSSKKDIINRGIVEIIIPSLNEKVKGCDFTTSESTIFSKGYSINEISNKSSNNQQDIVCTVKAHANDLIGFKCPSNYSVEPHDCFVSAFNLSGKNENLENKLKLTNIIMDHYNNTFYSRLPSLISDNWKFFCVCSKDNEKKLVFTVEASISS | binds |  |  |  | 
Pf12 D1D2 M108A (domain or fragment, Pf12, Plasmodium falciparum, residues N28-S304 (D1D2); source: Spodoptera frugiperda 21 cells, purified (Ni-IMAC, TEV cleavage, SEC); not shown: His8, N-terminal, cleaved) NLTCDFNDVYKLEFHPNQQTSVTKLCNLTPNVLEKVTIKCGSDKLNYNLYPPTCFEEVYASRNMMHLKKIKEFVIGSSMFARRSLTPNKINEVSFRIPPNMMPEKPIYCFCENKKTITINGSNGNPSSKKDIINRGIVEIIIPSLNEKVKGCDFTTSESTIFSKGYSINEISNKSSNNQQDIVCTVKAHANDLIGFKCPSNYSVEPHDCFVSAFNLSGKNENLENKLKLTNIIMDHYNNTFYSRLPSLISDNWKFFCVCSKDNEKKLVFTVEASISS | binds |  |  |  | 
Pf12 D1D2 R109A (domain or fragment, Pf12, Plasmodium falciparum, residues N28-S304 (D1D2); source: Spodoptera frugiperda 21 cells, purified (Ni-IMAC, TEV cleavage, SEC); not shown: His8, N-terminal, cleaved) NLTCDFNDVYKLEFHPNQQTSVTKLCNLTPNVLEKVTIKCGSDKLNYNLYPPTCFEEVYASRNMMHLKKIKEFVIGSSMFMARSLTPNKINEVSFRIPPNMMPEKPIYCFCENKKTITINGSNGNPSSKKDIINRGIVEIIIPSLNEKVKGCDFTTSESTIFSKGYSINEISNKSSNNQQDIVCTVKAHANDLIGFKCPSNYSVEPHDCFVSAFNLSGKNENLENKLKLTNIIMDHYNNTFYSRLPSLISDNWKFFCVCSKDNEKKLVFTVEASISS | binds |  |  |  | 
Pf12 D1D2 R110A (domain or fragment, Pf12, Plasmodium falciparum, residues N28-S304 (D1D2); source: Spodoptera frugiperda 21 cells, purified (Ni-IMAC, TEV cleavage, SEC); not shown: His8, N-terminal, cleaved) NLTCDFNDVYKLEFHPNQQTSVTKLCNLTPNVLEKVTIKCGSDKLNYNLYPPTCFEEVYASRNMMHLKKIKEFVIGSSMFMRASLTPNKINEVSFRIPPNMMPEKPIYCFCENKKTITINGSNGNPSSKKDIINRGIVEIIIPSLNEKVKGCDFTTSESTIFSKGYSINEISNKSSNNQQDIVCTVKAHANDLIGFKCPSNYSVEPHDCFVSAFNLSGKNENLENKLKLTNIIMDHYNNTFYSRLPSLISDNWKFFCVCSKDNEKKLVFTVEASISS | binds |  |  |  | 
Pf12 D1D2 R123A (domain or fragment, Pf12, Plasmodium falciparum, residues N28-S304 (D1D2); source: Spodoptera frugiperda 21 cells, purified (Ni-IMAC, TEV cleavage, SEC); not shown: His8, N-terminal, cleaved) NLTCDFNDVYKLEFHPNQQTSVTKLCNLTPNVLEKVTIKCGSDKLNYNLYPPTCFEEVYASRNMMHLKKIKEFVIGSSMFMRRSLTPNKINEVSFAIPPNMMPEKPIYCFCENKKTITINGSNGNPSSKKDIINRGIVEIIIPSLNEKVKGCDFTTSESTIFSKGYSINEISNKSSNNQQDIVCTVKAHANDLIGFKCPSNYSVEPHDCFVSAFNLSGKNENLENKLKLTNIIMDHYNNTFYSRLPSLISDNWKFFCVCSKDNEKKLVFTVEASISS | binds |  |  |  | 
nanobody B11 (VHH, alpaca, immunised with Pf12-Pf41 complex; Pf12-specific; source: E. coli WK6, periplasmic extract, purified (HisTrap, SEC)) VHH: QVQLQESGGGLVQAGGSLRLSCAASGRTFSSYAMGWFRQAPGKEREFVAAISWNGGRTYYADSVKGRFTISRDNAKNTVYLQMNSLKPEDTAVYYCAADPTGTVDDETGIYVYWGQGTQVTVSS |  | binds | no binding | binds | 
nanobody C1 (VHH, alpaca, immunised with Pf12-Pf41 complex; Pf12-specific; source: E. coli WK6, periplasmic extract, purified (HisTrap, SEC)) VHH: QVQLQESGGGLVQPGASLRLSCTVSGIIMADHAIGWFRQAPGKEREGIACFIRSDGTTYYSDSAKGRFTISRDNAKNTVYLQMNSLKPEDTADYYCATGKIVCANGFIVDYGSDYRGKGTQVTVSS |  | binds | no binding | binds | 
nanobody C12 (VHH, alpaca, immunised with Pf12-Pf41 complex; Pf12-specific; source: E. coli WK6, periplasmic extract, purified (HisTrap, SEC)) VHH: QVQLQESGGGLVQAGGSLRLSCAASGRTFSSYSMGWFRQAPGKQRELVAAISSGGSTDYTDSVKGRFTISRDNAKNTVYLQMNSLKPEDTAVYYCAAGDYSDYVGMWDIWGQGTQVTVSS |  | binds | no binding | binds | 
nanobody D12 (VHH, alpaca, immunised with Pf12-Pf41 complex; Pf12-specific; source: E. coli WK6, periplasmic extract, purified (HisTrap, SEC)) VHH: QVQLQESGGGLVEAGGSLRLSCAASTRTFSSLVMGWFRQAPGKERELVAAISRSGDSTDYTDSVKGRFTISRDNAKNTVYLQMNSLKPEDTAVYSCAADPTGVDSSLAVGLWVYWGQGTQVTVSS |  | binds | no binding | binds | 
nanobody H11 (VHH, alpaca, immunised with Pf12-Pf41 complex; Pf12-specific; source: E. coli WK6, periplasmic extract, purified (HisTrap, SEC)) VHH: QVQLQESGGGLVQPGGSLRLSCAGSGFTLDHYAIGWFRQAPGKEREGVSCIISSDSSTYYTDSVKGRFTISRDNAKNTVYLQMNSLKPEDTAVYYCATEKIVCASGFIVDYGMDYCGKGTQVTVSS |  | binds | no binding | binds | 
nanobody G7 (VHH, alpaca, immunised with Pf12-Pf41 complex; Pf12-specific; also called Nb G7; source: E. coli WK6, periplasmic extract, purified (HisTrap, SEC)) VHH: QVQLQESGGGLVQAGGSLRLSCAASGRTFSSYGMGWFRQAPGTEREFVAAISWSGDSTYYADSVKGRFTISIDKAKNTVYLQMNSLKPEDTAVYYCAADHALVVGGTYNYWGQGTQVTVSS |  |  | no binding |  | percent reduction of the Pf12-Pf41 FRET signal [5]: ~80%; Kd [2]: ~25 nM
nanobody A10 (VHH, alpaca, immunised with Pf12-Pf41 complex; Pf12-specific; source: E. coli WK6, periplasmic extract, purified (HisTrap, SEC)) VHH: QVQLQESGGGFVQPGGSLRLSCAASGFTLDYYFIGWFRQAPGKEREGVSCISSSDGSTYYAESVKGRFTISRDNAKNTVYLQMNSLKPEDTAVYYCATDKIVCSSDFIVDYGMDSRGKGTQVTVSS |  |  | no binding |  | Kd [2]: < 0.01 nM
nanobody B5 (VHH, alpaca, immunised with Pf12-Pf41 complex; Pf12-specific; The 'Nb B5 of PDB ID 7KJH' used as a search model may be another nanobody of the same label; source: E. coli WK6, periplasmic extract, purified (HisTrap, SEC)) VHH: QVQLQESGGGLVQPGGSLRLSCAASGFTLDEYAMGWFRQAPGKEREGISCISSSDGTTFYADSVKGRFTISRDNAKNTVYLQMNSLKPEDTAVYYCATDCVGSYSRYWGQGTQVTVSS |  |  | no binding |  | Kd [2]: < 0.01 nM
nanobody C9 (VHH, alpaca, immunised with Pf12-Pf41 complex; Pf12-specific; source: E. coli WK6, periplasmic extract, purified (HisTrap, SEC)) VHH: QVQLQESGGGLVQPGGSLRLSCAASGFTLDYYAIGWFRQAPGKEREGVSCISSSGGSTYYADSVKGRSTISRDNAKNTVYLQMNSLKPEDTAVYYCATDCLRDYGLEYVPGRYDYWGQGTQVTVSS |  |  | no binding |  | Kd [2]: < 0.01 nM
